Test results published in publication PMC11323494, “A network of acetyl phosphate-dependent modification modulates c-di-AMP homeostasis in Actinobacteria” (mBio, 2024).
Blank lines part the entries; values can stand above or below the molecule they belong to.

Assays:
[1] = target: T1, DisA (Saccharopolyspora erythraea, UniProt A4F6V9); assay: HPLC of c-di-AMP formed (DAC assay); type: biochemical; details: 100 mM ATP, 10 mM MgCl2, 0.1 M NaCl, 40 mM Tris pH 7.5, 10 uM enzyme
T1 construct: recombinant His-tagged, pET28a(+), E. coli BL21(DE3); octamer
T1 sequence (A4F6V9 1-370): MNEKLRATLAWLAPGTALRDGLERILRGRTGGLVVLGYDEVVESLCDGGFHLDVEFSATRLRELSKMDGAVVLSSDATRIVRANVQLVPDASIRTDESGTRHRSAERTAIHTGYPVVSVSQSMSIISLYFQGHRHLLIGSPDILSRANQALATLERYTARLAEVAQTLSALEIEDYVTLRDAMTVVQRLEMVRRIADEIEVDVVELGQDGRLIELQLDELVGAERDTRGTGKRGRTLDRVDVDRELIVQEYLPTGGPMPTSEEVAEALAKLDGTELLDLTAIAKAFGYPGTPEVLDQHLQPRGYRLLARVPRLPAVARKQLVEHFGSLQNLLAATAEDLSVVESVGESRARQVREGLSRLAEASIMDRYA

[2] = target: T2, DasR (Saccharopolyspora erythraea, UniProt A4F723); assay: in vitro acetylation, anti-AcK Western blot; type: binding; details: covalent; lysine acetylation; 10 mM AcP, 0-5 h, 37 C, 50 mM HEPES pH 7.5
T2 construct: gene SACE_0500; recombinant His-tagged, pET28a(+), E. coli BL21(DE3); dimer
T2 sequence (A4F723 1-251): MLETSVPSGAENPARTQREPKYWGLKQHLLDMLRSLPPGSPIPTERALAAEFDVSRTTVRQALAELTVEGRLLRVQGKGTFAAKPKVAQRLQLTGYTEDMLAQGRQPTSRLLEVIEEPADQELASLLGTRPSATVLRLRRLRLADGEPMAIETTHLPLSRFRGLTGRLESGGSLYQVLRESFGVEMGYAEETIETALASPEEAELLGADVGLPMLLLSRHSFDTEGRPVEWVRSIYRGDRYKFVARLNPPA

[3] = target: T1, DisA; assay: DAC activity by HPLC after […] h preincubation; acetylation by anti-AcK blot and LC-MS/MS; type: biochemical; details: covalent; lysine acetylation (K66, K284); 10 mM AcP, 5 h, 37 C, 50 mM HEPES pH 7.5; substrate ATP
[4] = target: DNA integrity scanning protein (DisA), nonacetylated (Saccharopolyspora erythraea) (UniProt A4F6V9); assay: cross-linking; purified protein in 20 mM bicine pH 8.0, 150 mM NaCl, 10 mM MgCl2, 0.2% n-octyl-beta-D-glucopyranoside, 8% glycerol; 1 mM disuccinimidyl suberate, room temperature, 1 h; 15% SDS-PAGE, Coomassie blue; bands quantified by densitometry; self-association (DisA monomer and octamer, DasR monomer and dimer)
[5] = target: DasR, nonacetylated (GntR-family global regulator) (Saccharopolyspora erythraea); assay: as above
[6] = target: DasR K78Q variant; assay: cross-linking, gel band densitometry (ImageJ); details: parent: 100
[7] = target: DasR^K78R; assay: cross-linking, gel band densitometry (ImageJ); details: parent: 100
[8] = system: DasR WT (Saccharopolyspora erythraea NRRL2338); assay: BLI; details: BLI: 10 mM HEPES pH 8.0, 2 mM MgCl2, 0.1 mM EDTA, 200 mM KCl (running buffer + 10 µg/mL BSA, 0.02% Tween-20), SA sensor, temperature not stated; EMSA: 5 nM …

Molecule: Nc1ncnc2c1ncn2[C@@H]1O[C@H](COP(=O)(O)OP(=O)(O)OP(=O)(O)O)[C@@H](O)[C@H]1O [ATP]
HPLC of c-di-AMP formed (DAC assay) [1]: started by the addition of 100-mM ATP

Molecule: CC(=O)OP(=O)(O)O [acetyl phosphate]
in vitro acetylation, anti-AcK Western blot [2]: In vitro acetylation further confirmed that DasR was acetylated by AcP
DAC activity reduction (%) [3]: ~ 75%

Molecule: DasR, nonacetylated (GntR-family global regulator) K78R
other: relative monomer level (relative monomer level (WT = 100)) [7]: 140
percent of parent (relative dimer level (WT = 100)) [7]: 89

Molecule: disA promoter probe
Kd [8]: 400 nM

The remaining lines, values ahead:

stoichiometry N [4]: 8
Molecule: DNA integrity scanning protein (DisA), nonacetylated (from UniProt A4F6V9 1-370) (enzyme)

stoichiometry N [5]: 2
Molecule: DasR, nonacetylated (GntR-family global regulator) (natural protein)

other: relative monomer level (relative monomer level (WT = 100)) [6]: 230
percent of parent (relative dimer level (WT = 100)) [6]: 42
Molecule: DasR, nonacetylated (GntR-family global regulator) K78Q
